Reference: publication PMC10319729 (2023)

T1: LGR5ΔCT (human LGR5 without the cytoplasmic C-terminal tail) on HEK293 cells (human, UniProt O75473 22-907)
T1 chain: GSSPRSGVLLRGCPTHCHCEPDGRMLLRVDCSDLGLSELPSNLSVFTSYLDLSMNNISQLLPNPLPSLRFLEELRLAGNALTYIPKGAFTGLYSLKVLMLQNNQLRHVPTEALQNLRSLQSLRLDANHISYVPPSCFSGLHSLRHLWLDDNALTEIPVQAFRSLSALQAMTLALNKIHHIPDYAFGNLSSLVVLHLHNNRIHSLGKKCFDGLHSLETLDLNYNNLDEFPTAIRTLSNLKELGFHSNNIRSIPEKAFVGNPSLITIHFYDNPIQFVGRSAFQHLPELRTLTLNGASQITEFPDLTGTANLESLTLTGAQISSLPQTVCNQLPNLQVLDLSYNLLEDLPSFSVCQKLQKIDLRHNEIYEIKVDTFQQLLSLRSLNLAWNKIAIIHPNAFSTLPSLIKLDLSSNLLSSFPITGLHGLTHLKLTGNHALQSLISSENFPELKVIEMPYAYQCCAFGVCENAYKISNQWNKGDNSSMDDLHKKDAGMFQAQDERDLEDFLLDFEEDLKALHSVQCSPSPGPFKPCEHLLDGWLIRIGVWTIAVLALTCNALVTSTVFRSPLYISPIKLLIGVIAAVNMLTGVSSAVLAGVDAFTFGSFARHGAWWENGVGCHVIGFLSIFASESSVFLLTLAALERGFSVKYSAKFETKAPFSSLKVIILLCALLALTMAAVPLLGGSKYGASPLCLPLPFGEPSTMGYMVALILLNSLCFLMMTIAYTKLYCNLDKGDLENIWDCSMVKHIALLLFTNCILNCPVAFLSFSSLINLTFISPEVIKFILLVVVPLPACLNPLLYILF


What was measured:
[1] = molecular target: T1, LGR5ΔCT (human LGR5 without the …)
[2] = molecular target: LGR4 (HA-LGR4) over-expressed on HEK293 cells (UniProt Q9BXB1 25-951)

| Kd [1] | Kd [2] | Binder |
| --- | --- | --- |
| 2.3 nM |  | R2Fu-mFc (RSPO2 furin domain fused to monomeric human IgG4-Fc, monovalent) (Fc fusion) NPICKGCLSCSKDNGCSRCQQKLFFFLRREGMRQYGECLHSCPSGYYGHRAPDMNRCARCRIENCDSCFSKDFCTKCKVGFYLHRGRCFDECPDGFAPLEETMECVE |
| 1.8 nM | 9 nM | R2Fu-bFc (RSPO2 furin domain fused to wild-type IgG1-Fc, bivalent) (Fc fusion) NPICKGCLSCSKDNGCSRCQQKLFFFLRREGMRQYGECLHSCPSGYYGHRAPDMNRCARCRIENCDSCFSKDFCTKCKVGFYLHRGRCFDECPDGFAPLEETMECVE |
